These results are taken from patent US20250352667A1.

Assay [1] addresses KEAP1 (wild-type full-length), His-tagged (human) (UniProt Q14145). The assay is described as follows: AlphaScreen; 307.2 nM FLAG-NRF2, 150 nM His-KEAP1; Rep 1; control for I28V. (In general: In Alpha technology, singlet oxygen from a donor bead excites a nearby acceptor bead.)
For assay [2] the target is unchanged. The assay is described as follows: AlphaScreen; FLAG-NRF2 wt isoform 1 19.2 nM, His-KEAP1 150 nM; Rep 2; positive control for I86V.
For assay [3] the target is unchanged. The assay is described as follows: AlphaScreen; 4.8 nM FLAG-NRF2, 150 nM His-KEAP1; signal against NRF2 only; control for I28V.
Assay [4] shares this target. The assay is described as follows: AlphaScreen; 9.6 nM FLAG-NRF2, 150 nM His-KEAP1; Rep 2; control for I86V.
Assay [5] shares this target. The assay is described as follows: AlphaScreen; 76.8 nM FLAG-NRF2, 150 nM His-KEAP1; Rep 1; control for I86V.
The target is the same in assay [6]. The assay is described as follows: AlphaScreen; 9.6 nM FLAG-NRF2, 150 nM His-KEAP1; Rep 1; control for I86V.
The target is the same in assay [7]. The assay is described as follows: AlphaScreen; 76.8 nM FLAG-NRF2, 150 nM His-KEAP1; Rep 3; control for I86V.
For assay [8] the target is unchanged. The assay is described as follows: AlphaScreen, all variants on one plate; upper condition (38.4 nM NRF2), KEAP1 150 nM; the reference itself.
The target is the same in assay [9]. The assay is described as follows: AlphaScreen; NRF2 wt isoform 1 2.4 nM, KEAP1 150 nM; signal against NRF2-only control; control for Q75R.
Assay [10] shares this target. The assay is described as follows: AlphaScreen; NRF2 wt isoform 1 19.2 nM, KEAP1 150 nM; set as the 100 % reference for I86V.
For assay [11] the target is unchanged. The assay is described as follows: AlphaScreen; 38.4 nM FLAG-NRF2, 150 nM His-KEAP1; signal against NRF2 only; control for I28V.
For assay [12] the target is unchanged. The assay is described as follows: AlphaScreen; NRF2 wt isoform 1 9.6 nM, KEAP1 150 nM; set as the 100 % reference for Q75R.
The target is the same in assay [13]. The assay is described as follows: AlphaScreen; 76.8 nM FLAG-NRF2, 150 nM His-KEAP1; signal against NRF2 only.
For assay [14] the target is unchanged. The assay is described as follows: AlphaScreen; 19.2 nM FLAG-NRF2, 150 nM His-KEAP1; signal against NRF2 only.
Assay [15] has the same target. The assay is described as follows: AlphaScreen; 307.2 nM FLAG-NRF2, 150 nM His-KEAP1; signal against NRF2 only.
Assay [16] shares this target. The assay is described as follows: AlphaScreen; 2.4 nM FLAG-NRF2, 150 nM His-KEAP1; Rep 2.
Assay [17] has the same target. The assay is described as follows: AlphaScreen; NRF2 I86V 38.4 nM, KEAP1 150 nM; relative to wild-type NRF2 isoform 1 (100 %).
Assay [18] has the same target. The assay is described as follows: AlphaScreen; NRF2 I86V 614.4 nM, KEAP1 150 nM; signal against NRF2-only control.
For assay [19] the target is unchanged. The assay is described as follows: AlphaScreen; FLAG-NRF2 I86V 307.2 nM, His-KEAP1 150 nM; Rep 1.
Assay [20] shares this target. The assay is described as follows: AlphaScreen; NRF2 Q75R 2.4 nM, KEAP1 150 nM; signal against NRF2-only control.
The target is the same in assay [21]. The assay is described as follows: AlphaScreen; NRF2 Q75R 153.6 nM, KEAP1 150 nM; signal against NRF2-only control.
For assay [22] the target is unchanged. The assay is described as follows: AlphaScreen; NRF2 Q75R 9.6 nM, KEAP1 150 nM; signal against NRF2-only control.
Assay [23] has the same target. The assay is described as follows: AlphaScreen; NRF2 Q75R 1228.8 nM, KEAP1 150 nM; signal against NRF2-only control.
Assay [24] has the same target. The assay is described as follows: AlphaScreen; NRF2 Q75R 19.2 nM, KEAP1 150 nM; signal against NRF2-only control.
Assay [25] has the same target. The assay is described as follows: AlphaScreen; NRF2 Q75R 38.4 nM, KEAP1 150 nM; relative to wild-type NRF2 isoform 1 (100 %).
Assay [26] has the same target. The assay is described as follows: AlphaScreen; mean over 9.6, 19.2 and 38.4 nM NRF2 Q75R, KEAP1 150 nM; relative to wild-type NRF2 isoform 1.
For assay [27] the target is unchanged. The assay is described as follows: AlphaScreen; FLAG-NRF2 Q75R 9.6 nM, His-KEAP1 150 nM; Rep 1.

Sequence of KEAP1 (wild-type full-length), His-tagged (human) (Q14145 2-624 limits assumed): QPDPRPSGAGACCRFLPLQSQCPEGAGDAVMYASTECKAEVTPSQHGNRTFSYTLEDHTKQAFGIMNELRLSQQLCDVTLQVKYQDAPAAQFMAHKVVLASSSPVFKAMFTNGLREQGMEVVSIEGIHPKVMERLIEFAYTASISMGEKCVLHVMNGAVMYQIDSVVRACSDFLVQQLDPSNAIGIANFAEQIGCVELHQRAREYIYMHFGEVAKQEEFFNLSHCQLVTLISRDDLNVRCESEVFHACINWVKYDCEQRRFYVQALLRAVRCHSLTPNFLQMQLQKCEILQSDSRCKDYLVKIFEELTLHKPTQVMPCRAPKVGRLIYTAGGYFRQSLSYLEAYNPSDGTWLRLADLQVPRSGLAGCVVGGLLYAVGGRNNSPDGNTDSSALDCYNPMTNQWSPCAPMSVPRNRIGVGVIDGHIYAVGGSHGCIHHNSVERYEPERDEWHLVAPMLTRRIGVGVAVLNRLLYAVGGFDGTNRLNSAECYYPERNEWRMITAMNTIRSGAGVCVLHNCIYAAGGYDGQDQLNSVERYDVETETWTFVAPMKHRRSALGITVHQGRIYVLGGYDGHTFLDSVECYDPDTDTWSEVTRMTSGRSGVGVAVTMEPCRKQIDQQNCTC

B1: NRF2 isoform 1 (wild-type full-length), FLAG-tagged (protein)
chain: MMDLELPPPGLPSQQDMDLIDILWRQDIDLGVSREVFDFSQRRKEYELEKQKKLEKERQEQLQKEQEKAFFAQLQLDEETGEFLPIQPAQHIQSETSGSANYSQVAHIPKSDALYFDDCMQLLAQTFPFVDDNEVSSATFQSLVPDIPGHIESPVFIATNQAQSPETSVAQVAPVDLDGMQQDIEQVWEELLSIPELQCLNIENDKLVETTMVPSPEAKLTEVDNYHFYSSIPSMEKEVGNCSPHFLNAFEDSFSSILSTEDPNQLTVNSLNSDATVNTDFGDEFYSAFIAEPSISNSMPSPATLSHSLSELLNGPIDVSDLSLCKAFNQNHPESTAEFNDSDSGISLNTSPSVASPEHSVESSSYGDTLLGLSDSEVEELDSAPGSVKQNGPKTPVHSSGDMVQPLSPSQGQSTHVHDAQCENTPEKELPVSPGHRKTPFTKDKHSSRLEAHLTRDELRAKALHIPFPVEKIINLPVVDFNEMMSKEQFNEAQLALIRDIRRRGKNKVAAQNCRKRKLENIVELEQDLDHLKDEKEKLLKEKGENDKSLHLLKKQLSTLYLEVFSMLRDEDGKPYSPSEYSLQQTRDGNVFLVPKSKKPDVKKN
Take B1: the A-counts in assay [1] was 1850 A-counts; in assay [4], 2720 A-counts; in assay [5], 3020 A-counts; in [6], 2640 A-counts; in assay [7], 2880 A-counts. The A-counts (NRF2 plus KEAP1) in assay [2] was 3270 A-counts. Moreover, the S/N turned out to be 3.2 in [3], 1.4 in assay [9] and 3.6 in assay [11]. In assay [8], the % Disruption in Binding came out at 0%. The Binding Percentage in assay [10] and in [12] was 100% in each case.

B2: NRF2 isoform 1 (I28V full-length), FLAG-tagged (protein)
chain: MMDLELPPPGLPSQQDMDLIDILWRQDVDLGVSREVFDFSQRRKEYELEKQKKLEKERQEQLQKEQEKAFFAQLQLDEETGEFLPIQPAQHIQSETSGSANYSQVAHIPKSDALYFDDCMQLLAQTFPFVDDNEVSSATFQSLVPDIPGHIESPVFIATNQAQSPETSVAQVAPVDLDGMQQDIEQVWEELLSIPELQCLNIENDKLVETTMVPSPEAKLTEVDNYHFYSSIPSMEKEVGNCSPHFLNAFEDSFSSILSTEDPNQLTVNSLNSDATVNTDFGDEFYSAFIAEPSISNSMPSPATLSHSLSELLNGPIDVSDLSLCKAFNQNHPESTAEFNDSDSGISLNTSPSVASPEHSVESSSYGDTLLGLSDSEVEELDSAPGSVKQNGPKTPVHSSGDMVQPLSPSQGQSTHVHDAQCENTPEKELPVSPGHRKTPFTKDKHSSRLEAHLTRDELRAKALHIPFPVEKIINLPVVDFNEMMSKEQFNEAQLALIRDIRRRGKNKVAAQNCRKRKLENIVELEQDLDHLKDEKEKLLKEKGENDKSLHLLKKQLSTLYLEVFSMLRDEDGKPYSPSEYSLQQTRDGNVFLVPKSKKPDVKKN
For the molecule B2, the S/N stood at 2.2 in assay [13], 3.2 in assay [14] and 1.2 in assay [15]. In [16], this molecule gave an A-counts of 696 A-counts.

B3: NRF2 isoform 1 (I86V full-length), FLAG-tagged (protein)
chain: MMDLELPPPGLPSQQDMDLIDILWRQDIDLGVSREVFDFSQRRKEYELEKQKKLEKERQEQLQKEQEKAFFAQLQLDEETGEFLPVQPAQHIQSETSGSANYSQVAHIPKSDALYFDDCMQLLAQTFPFVDDNEVSSATFQSLVPDIPGHIESPVFIATNQAQSPETSVAQVAPVDLDGMQQDIEQVWEELLSIPELQCLNIENDKLVETTMVPSPEAKLTEVDNYHFYSSIPSMEKEVGNCSPHFLNAFEDSFSSILSTEDPNQLTVNSLNSDATVNTDFGDEFYSAFIAEPSISNSMPSPATLSHSLSELLNGPIDVSDLSLCKAFNQNHPESTAEFNDSDSGISLNTSPSVASPEHSVESSSYGDTLLGLSDSEVEELDSAPGSVKQNGPKTPVHSSGDMVQPLSPSQGQSTHVHDAQCENTPEKELPVSPGHRKTPFTKDKHSSRLEAHLTRDELRAKALHIPFPVEKIINLPVVDFNEMMSKEQFNEAQLALIRDIRRRGKNKVAAQNCRKRKLENIVELEQDLDHLKDEKEKLLKEKGENDKSLHLLKKQLSTLYLEVFSMLRDEDGKPYSPSEYSLQQTRDGNVFLVPKSKKPDVKKN
Molecule B3 had a Binding Percentage in [17] of 93.7%. In addition, the S/N in [18] was 1.1. Also, in [19], the A-counts (NRF2 plus KEAP1) is 2210 A-counts.

B4: NRF2 isoform 1 (Q75R full-length), FLAG-tagged (protein)
chain: MMDLELPPPGLPSQQDMDLIDILWRQDIDLGVSREVFDFSQRRKEYELEKQKKLEKERQEQLQKEQEKAFFAQLRLDEETGEFLPIQPAQHIQSETSGSANYSQVAHIPKSDALYFDDCMQLLAQTFPFVDDNEVSSATFQSLVPDIPGHIESPVFIATNQAQSPETSVAQVAPVDLDGMQQDIEQVWEELLSIPELQCLNIENDKLVETTMVPSPEAKLTEVDNYHFYSSIPSMEKEVGNCSPHFLNAFEDSFSSILSTEDPNQLTVNSLNSDATVNTDFGDEFYSAFIAEPSISNSMPSPATLSHSLSELLNGPIDVSDLSLCKAFNQNHPESTAEFNDSDSGISLNTSPSVASPEHSVESSSYGDTLLGLSDSEVEELDSAPGSVKQNGPKTPVHSSGDMVQPLSPSQGQSTHVHDAQCENTPEKELPVSPGHRKTPFTKDKHSSRLEAHLTRDELRAKALHIPFPVEKIINLPVVDFNEMMSKEQFNEAQLALIRDIRRRGKNKVAAQNCRKRKLENIVELEQDLDHLKDEKEKLLKEKGENDKSLHLLKKQLSTLYLEVFSMLRDEDGKPYSPSEYSLQQTRDGNVFLVPKSKKPDVKKN
On to B4, for which the S/N in assay [20] stood at 2; in [21], 1.5; in assay [22] it was 2.4; in assay [23], 0.9; in [24] it was 2.5. Besides, in assay [25], the Binding Percentage is 73.4%. In assay [26], the Average Binding came to 69.8%. Further, the Avg. Reduction in Binding in assay [26] is 30.2%. For the same molecule, the A-counts (NRF2 plus KEAP1) in assay [27] was found to be 1180 A-counts.
